The results in this text go back to patent publication US20190011465A1.

The target in one assay is human D-dimer (human) (UniProt P02671). As to the kind of experiment: competitive inhibition ELISA: HRP-B4 pre-incubated with soluble antigen, then added to a D-dimer-coated plate. Background: In an ELISA, binding on a coated surface is turned into a signal by an enzyme label.
The target in a further assay is D monomer (UniProt P02671). Described as above.

Broadly, the Kd is the free concentration of one partner at which half of the binding sites on the other are occupied at equilibrium, for simple one-to-one binding. In turn, monoclonal antibody B4 yielded a dissociation constant (Kd) in the assay with human D-dimer (human) of 980 pM. The reactivity with D monomer was 5 µM.
